Data on two molecules can be found in paper PMC7954794, “Protein context shapes the specificity of SH3 domain-mediated interactions in vivo” (Nature Communications, 2021).

No end group written: not given here.

In this assay the target is T1, NCK2 full-length recombinant protein (mouse, WT, tag-free) (mouse, UniProt O55033 1-380).
T1 construct: NCK2, mouse, full-length recombinant; also called WT NCK2; NCK2 1|2|3; source: E. coli BL21 (DE3), purified (GSTrap, TEV cleavage, HisTrap)
The assay is described as follows: fluorescence polarisation; 40 nM fluorescein isothiocyanate-conjugated peptide, NCK2 titrated (0-150 μM for CD3ε, 0-175 μM for PAK1); 17 mM Tris-HCl pH 8, 100 mM NaCl; one-site total binding model; triplicates. As to conditions: both partners purified. Background: Fluorescence polarisation rises when a labelled molecule tumbles more slowly, as on binding a larger partner.

T1 sequence (O55033 whole entry): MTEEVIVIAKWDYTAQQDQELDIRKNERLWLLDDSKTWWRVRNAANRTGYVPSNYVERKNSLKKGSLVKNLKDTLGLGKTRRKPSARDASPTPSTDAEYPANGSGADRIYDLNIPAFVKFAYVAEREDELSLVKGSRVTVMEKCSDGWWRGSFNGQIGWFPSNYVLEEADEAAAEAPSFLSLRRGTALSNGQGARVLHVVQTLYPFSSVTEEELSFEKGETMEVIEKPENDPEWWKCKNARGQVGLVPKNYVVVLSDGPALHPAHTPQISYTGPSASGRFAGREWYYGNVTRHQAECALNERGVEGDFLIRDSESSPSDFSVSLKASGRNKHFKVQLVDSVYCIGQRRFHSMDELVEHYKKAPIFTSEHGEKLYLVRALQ

B1: Cd3ε peptide (RGQNKERPPPVPNPDY), fluorescein isothiocyanate-conjugated (peptide)
peptide: RGQNKERPPPVPNPDY
modifications: also: fluorescein isothiocyanate-conjugated (position not given here)
notes: peptide of CD3 epsilon, ligand of NCK2 SH3-1; also called CD3Ɛ
Take B1: the binding result was “binds”.

B2: PAK1 peptide (DIQDKPPAPPMRNTST), fluorescein isothiocyanate-conjugated (peptide)
peptide: DIQDKPPAPPMRNTST
modifications: also: fluorescein isothiocyanate-conjugated (position not given here)
notes: peptide of PAK1, ligand of NCK2 SH3-2; also called PAK1 target peptide
With B2, the binding result is “binds”.
